Experiment [1] deals with Recombinant hemagglutinin-esterase-fusion (HEF) ectodomain of influenza C virus C/Johannesburg/1/1966 (influenza C virus (C/Johannesburg/1/1966)) (UniProt P07975). Put plainly: BLI.
Experiment [2] concerns the target Recombinant hemagglutinin-esterase-fusion (HEF) ectodomain of influenza D virus D/swine/Oklahoma/1334/2011 (influenza D virus (D/swine/Oklahoma/1334/2011)). Put plainly: BLI. In general terms: Biolayer interferometry detects binding as a change in optical thickness at a sensor tip.

Sequence of UniProt P07975 (P07975 15-630): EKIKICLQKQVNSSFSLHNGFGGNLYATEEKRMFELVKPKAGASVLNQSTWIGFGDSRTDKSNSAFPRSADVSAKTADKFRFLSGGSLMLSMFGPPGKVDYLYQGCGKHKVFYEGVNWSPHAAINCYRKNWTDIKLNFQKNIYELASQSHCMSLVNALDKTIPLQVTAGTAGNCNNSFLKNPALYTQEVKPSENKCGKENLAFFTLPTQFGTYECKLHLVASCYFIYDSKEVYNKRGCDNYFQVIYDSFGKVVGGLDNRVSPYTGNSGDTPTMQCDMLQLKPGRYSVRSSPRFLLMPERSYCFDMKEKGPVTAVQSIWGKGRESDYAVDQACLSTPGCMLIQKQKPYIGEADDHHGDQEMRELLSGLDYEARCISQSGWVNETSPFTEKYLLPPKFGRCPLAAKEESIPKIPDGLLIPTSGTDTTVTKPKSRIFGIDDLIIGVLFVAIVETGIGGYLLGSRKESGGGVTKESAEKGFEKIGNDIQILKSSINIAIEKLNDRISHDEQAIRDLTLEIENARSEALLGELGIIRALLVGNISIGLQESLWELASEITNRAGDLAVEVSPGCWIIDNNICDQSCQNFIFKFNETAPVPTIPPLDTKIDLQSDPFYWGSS

Turning to “CR9114 IgM (pentameric, ten antigen binding sites) (antibody)”, the equilibrium dissociation constant (Kd) in experiment [1] and in experiment [2] was above 100 µM throughout.

Consider “CR9114 IgG (human IgG1, wild type) (antibody)”, for which the dissociation constant Kd in experiment [1] and in experiment [2] was above 100 µM each time.

Broadly, the Kd is the concentration at which binding is half-saturated.

These data come from PMC11978755.
